From patent US20230312722A1 (NONA BIOSCIENCES SUZHOU, published 2023)

What was measured:
Assay in all cases: ELISA, plate coated with 1 µg/mL B7 family protein
[1] = target: T1, Human PD-L1/B7-H1 Protein, His Tag (Acro PD1-H5229) (human, UniProt Q9NZQ7 19-238)
T1 construct: Bought protein
Procedure: (§1) The proteins of the B7 family (see Table 9-1 for details) were each diluted to 1 μg/mL with PBS, added to a 96-well plate (Corning, #9018) at 100 μL per well, and incubated overnight at 4° C. After the liquid was discarded, the plate was washed 3 times with PBST buffer (pH 7.4, containing 0.05% tween-20), and 250 μL of 2% BSA blocking buffer was added. The plate was incubated at 37° C. for 1 hour. The blocking buffer was discarded, and the plate was washed 3 times with PBST buffer (pH 7.4, containing 0.05% Tween-20). The test antigen-binding protein was diluted to 2 concentrations: 10 nM and 1 nM, and added at 100 μL per well. The plate was incubated at 37° C. for 1 hour. An isotype antibody was taken as a control. After the plate was washed 3 times with PBST buffer (pH 7.4, containing 0.05% Tween-20), the plate was added with a 5000-fold diluted goat anti-human F(ab′)₂ HRP secondary antibody (Jackson ImmunoResearch, 109-035-097), and incubated at 37° C. away from light for 1 hour. After the plate was washed 3 times with PBST buffer (pH 7.4, containing 0.05% Tween-20), TMB (Biopanda, #TMB-S-003) was added at 100 μL/well. The plate was left away from light at room temperature for about 30 minutes. The reactions were terminated by adding 50 μL of stop buffer (BBI life sciences, #E661006-0200) to each well, and the absorbance values at 450 nm (OD450) was measured using a microplate reader (PerkinElemer, #Enspire).

[2] = target: T2, CD275/ICOS ligand Protein, Human, Recombinant (Fc Tag) (Sino Biological 11559-H02H) (human, UniProt O75144 19-258)
T2 construct: Bought protein; also called B7H2
T2 sequence (looked up): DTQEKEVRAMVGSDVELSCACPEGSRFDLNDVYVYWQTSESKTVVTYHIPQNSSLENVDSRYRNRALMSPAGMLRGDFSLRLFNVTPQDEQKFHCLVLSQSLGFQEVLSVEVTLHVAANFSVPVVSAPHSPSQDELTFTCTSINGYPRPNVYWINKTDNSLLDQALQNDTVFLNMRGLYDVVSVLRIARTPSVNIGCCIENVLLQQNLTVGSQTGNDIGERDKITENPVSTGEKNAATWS
Procedure: as §1

[3] = target: T3, Human B7-2/CD86 Protein, Fc Tag (Acro CD6-H5257) (human, UniProt P42081 26-247)
T3 construct: Bought protein
T3 sequence (looked up): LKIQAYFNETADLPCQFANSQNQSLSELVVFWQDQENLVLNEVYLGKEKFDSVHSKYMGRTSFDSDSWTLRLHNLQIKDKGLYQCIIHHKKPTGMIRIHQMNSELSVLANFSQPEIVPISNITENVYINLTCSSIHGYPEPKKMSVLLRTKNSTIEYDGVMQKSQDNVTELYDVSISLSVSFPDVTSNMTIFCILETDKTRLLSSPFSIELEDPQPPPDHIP
Procedure: as §1

[4] = target: T4, Human B7-1/CD80 Protein, Fc Tag (Acro B71-H5259) (human, UniProt P33681 35-242)
T4 construct: Bought protein
T4 sequence (looked up): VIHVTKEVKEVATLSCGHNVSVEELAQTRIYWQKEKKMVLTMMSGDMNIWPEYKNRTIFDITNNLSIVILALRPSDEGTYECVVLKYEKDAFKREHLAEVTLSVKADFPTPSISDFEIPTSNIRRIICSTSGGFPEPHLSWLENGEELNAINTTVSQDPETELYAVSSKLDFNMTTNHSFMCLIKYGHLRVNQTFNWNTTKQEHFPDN
Procedure: as §1

[5] = target: T5, B7-H3/CD276 Protein, Human, Recombinant (ECD, Fc Tag) (Sino Biological 11188-H02H) (human, UniProt Q5ZPR3 29-466)
T5 construct: extracellular domain; Bought protein
T5 sequence (looked up): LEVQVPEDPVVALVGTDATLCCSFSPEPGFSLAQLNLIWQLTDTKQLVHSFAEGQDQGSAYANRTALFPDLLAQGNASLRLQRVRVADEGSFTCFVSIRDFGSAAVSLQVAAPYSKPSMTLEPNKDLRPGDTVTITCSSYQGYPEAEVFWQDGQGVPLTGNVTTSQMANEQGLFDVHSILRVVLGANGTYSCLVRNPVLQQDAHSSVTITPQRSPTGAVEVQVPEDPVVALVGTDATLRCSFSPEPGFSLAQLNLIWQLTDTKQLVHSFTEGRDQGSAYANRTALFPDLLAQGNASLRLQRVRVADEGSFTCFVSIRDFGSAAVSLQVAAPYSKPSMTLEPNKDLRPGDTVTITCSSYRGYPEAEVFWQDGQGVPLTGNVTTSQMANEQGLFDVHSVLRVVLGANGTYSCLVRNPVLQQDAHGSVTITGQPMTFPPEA
Procedure: as §1

[6] = target: T6, B7-H6/NCR3LG1 Protein, Human, Recombinant (Fc Tag) (Sino Biological 16140-H02H) (human, UniProt Q68D85 25-262)
T6 construct: Bought protein
T6 sequence (looked up): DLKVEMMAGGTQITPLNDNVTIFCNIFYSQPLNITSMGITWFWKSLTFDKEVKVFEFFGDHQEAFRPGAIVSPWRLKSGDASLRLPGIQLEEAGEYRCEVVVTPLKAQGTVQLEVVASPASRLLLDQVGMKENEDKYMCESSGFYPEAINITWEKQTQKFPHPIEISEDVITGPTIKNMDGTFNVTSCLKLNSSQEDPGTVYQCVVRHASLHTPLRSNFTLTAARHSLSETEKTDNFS
Procedure: as §1

[7] = target: T7, Recombinant human B7H7/HHLA2 Fc Chimera (R&D 8084-B7-050) (human, UniProt Q9UM44 23-344)
T7 construct: Bought protein
T7 sequence (looked up): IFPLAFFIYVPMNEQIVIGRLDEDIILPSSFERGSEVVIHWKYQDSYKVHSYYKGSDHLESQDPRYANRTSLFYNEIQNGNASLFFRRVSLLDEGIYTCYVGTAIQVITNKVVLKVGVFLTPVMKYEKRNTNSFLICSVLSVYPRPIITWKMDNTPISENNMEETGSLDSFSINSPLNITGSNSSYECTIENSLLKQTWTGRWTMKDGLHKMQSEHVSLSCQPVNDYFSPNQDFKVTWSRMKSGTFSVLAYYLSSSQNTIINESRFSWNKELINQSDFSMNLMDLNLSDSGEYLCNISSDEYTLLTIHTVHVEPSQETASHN
Procedure: as §1

[8] = target: T8, Recombinant human VISTA/B7H5/PD-1H Fc Chimera (R&D 7126-B7-050) (human, UniProt Q9H7M9 33-194)
T8 construct: Bought protein
T8 sequence (looked up): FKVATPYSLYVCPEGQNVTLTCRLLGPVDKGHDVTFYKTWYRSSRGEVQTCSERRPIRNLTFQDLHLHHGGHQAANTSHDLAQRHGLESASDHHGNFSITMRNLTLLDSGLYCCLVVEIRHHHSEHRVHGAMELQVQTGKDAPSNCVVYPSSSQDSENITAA
Procedure: as §1

[9] = target: T9, Human B7-DC/PD-L2/CD273 Protein, Recombinant (Fc Tag) (Sino Biological H10292-H02H) (human, UniProt Q9BQ51 20-219)
T9 construct: Bought protein
T9 sequence (looked up): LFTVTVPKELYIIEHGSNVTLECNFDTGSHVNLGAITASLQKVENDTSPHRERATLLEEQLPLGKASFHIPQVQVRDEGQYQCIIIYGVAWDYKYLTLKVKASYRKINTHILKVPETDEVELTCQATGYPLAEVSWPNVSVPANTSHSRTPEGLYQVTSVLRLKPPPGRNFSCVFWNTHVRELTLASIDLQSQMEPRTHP
Procedure: as §1

Measured: binding result

T1 sequence (Q9NZQ7 19-238 limits assumed): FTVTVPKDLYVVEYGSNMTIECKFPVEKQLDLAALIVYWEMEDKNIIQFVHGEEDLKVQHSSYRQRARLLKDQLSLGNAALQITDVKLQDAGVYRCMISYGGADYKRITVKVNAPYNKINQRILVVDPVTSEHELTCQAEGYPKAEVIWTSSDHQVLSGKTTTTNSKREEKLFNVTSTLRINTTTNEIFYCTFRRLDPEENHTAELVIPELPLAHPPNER

B1: PR002418 (antibody, human IgG1, kappa, V domains shown)
VH: QVQLVESGGGVVQPGRSLRLSCAASGFTFRSFGMHWVRQAPGKGLEWVAVISYDASNEYYADSVKGRFIISRDNSKDTLYLQMNSLRAGDTAVYYCAKGGGLRWYFAYWGQGTLVTVSS
VL: EIVMTQSPATLSVSPGERATLSCRASQSISSNLGWYQQKPGQAPRLLIYGASTRATGIPARFSGSGSGTEFTLTISSLQSEDFAVYYCQQYQSWPPLTFGGGTKVEIKR
notes: PTM variant/DE mutant of PR001476 (H: G55A; L: N92Q; Fc S239D, I332E), human IgG1
no binding (tested: 10 nM): all assays above
